The record followed here is the RNAGym collection of RNA variant scans (doi:10.1093/nar/gkz1192).

B1: CPEB3 Ribozyme (parent)
chain: UAACAGGGGGCCACAGCAGAAGCGUUCACGUCGCAGCCCCUGUCAGAUUCUGGUGAAUCUGCGAAUUCUGCUGUAUAUCUC

Variants of B1 are the subject of the series. In words: self-cleavage, relative activity (ratio to wild type); higher = more cleavage; in vitro, sequencing. The procedure, abridged: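 For each CPEB3 ribozyme variant, relative activity is its cleaved/total read fraction divided by the unmutated ribozyme's. Barcoded error-prone PCR libraries were transcribed by T7 RNA polymerase (5 hours, 37°C) and held in DNase I for 15 min before an EDTA stop, with cleavage occurring throughout. Template-switching reverse transcription and Illumina sequencing were used to read the RNAs. A 5-read minimum applied, and results are the mean of three batches.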
As for UAACAGGGGGCCACAGCAGAAGCGUUCACGUCGCAGCCCCUGUCAGAUCCUGGUGAAUCUGCGAAUUCUGCGGUAUAUCUC, the self-cleavage turned out to be 0.26.

With UAACAGGGGGCCACAGCAGAAGCGUUCACGUCGCAGCCCCUGUCAGAUCCUGGUGAAUCUGCGAAUUCUGCAGUAUAUCUC, the self-cleavage was 0.26.

As to UAACAGGGGGCCACAGCAGAAGCGUUCACGUCGCAGCCCCUGUCAGAUCAUGGUGAAUCUGCGAAUUCUGCUGUAUAUCUC, the self-cleavage came out at 0.78.

Take UAACAGGGGGCCACAGCAGAAGCGUUCACGUCGCAGCCCCUGUCAGAUCGUGGUGAAUCUGCGAAUUCUGCUGUAUAUCUC: the self-cleavage was determined as 0.82.

With UAACAGGGGGCCACAGCAGAAGCGUUCACGUCGCAGCCCCUGUCAGAUCUUGGUGAAUCUGCGAAUUCUGCUGUAUAUCUC, the self-cleavage amounted to 0.87.

On to UAACAGGGGGCCACAGCAGAAGCGUUCACGUCGCAGCCCCUGUCAGAUCCUGGUGAAUCUGCGAAUUCUGCUGUAUAUCAC, for which the self-cleavage was 0.51.

As for UAACAGGGGGCCACAGCAGAAGCGUUCACGUCGCAGCCCCUGUCAGAUCCUGGUGAAUCUGCGAAUUCUGCUGUAUAUCGC, the self-cleavage was determined as 0.49.

UAACAGGGGGCCACAGCAGAAGCGUUCACGUCGCAGCCCCUGUCAGAUCCUGGUGAAUCUGCGAAUUCUGCUGUAUAUCCC: the self-cleavage turned out to be 0.61.

Take UAACAGGGGGCCACAGCAGAAGCGUUCACGUCGCAGCCCCUGUCAGAUCCUGGUAAAUCUGCGAAUUCUGCUGUAUAUCUC: the self-cleavage amounted to 0.18.

As for UAACAGGGGGCCACAGCAGAAGCGUUCACGUCGCAGCCCCUGUCAGAUCCUGGUUAAUCUGCGAAUUCUGCUGUAUAUCUC, the self-cleavage amounted to 0.24.

As to UAACAGGGGGCCACAGCAGAAGCGUUCACGUCGCAGCCCCUGUCAGAUCCUGGUGAAUCUGCGAAUUCUGCUUUAUAUCUC, the self-cleavage was determined as 0.77.

Take UAACAGGGGGCCACAGCAGAAGCGUUCACGUCGCAGCCCCUGUCAGAUCCUGGUGAAUCUGCGAAUUCUGCUAUAUAUCUC: the self-cleavage stood at 0.73.

In the case of UAACAGGGGGCCACAGCAGAAGCGUUCACGUCGCAGCCCCUGUCAGAUCCUGGUGAAUCUGCGAAUUCUUCUGUAUAUCUC, the self-cleavage came to 0.2.

With UAACAGGGGGCCACAGCAGAAGCGUUCACGUCGCAGCCCCUGUCAGAUCCUGGUGAAUCUGCGAAUUCUACUGUAUAUCUC, the self-cleavage turned out to be 0.44.

As to UAACAGGGGGCCACAGCAGAAGCGUUCACGUCGCAGCCCCUGUCAGAUCCUGGUGAAUCUGCGAAUUCUGAUGUAUAUCUC, the self-cleavage was 0.17.

With UAACAGGGGGCCACAGCAGAAGCGUUCACGUCGCAGCCCCUGUCAGAUCCUGGUGAAUCUGCGAAUUCUGGUGUAUAUCUC, the self-cleavage stood at 0.19.

For the variant UAACAGGGGGCCACAGCAGAAGCGUUCACGUCGCAGCCCCUGUCAGAUCCUGGUGAAUCUGCGAAUUCUGUUGUAUAUCUC, the self-cleavage came out at 0.23.

As to UAACAGGGGGCCACAGCAGAAGCGUUCACGUCGCAGCCCCUGUCAGAUGCUGGUGAAUCUGCGGAUUCUGCUGUAUAUCUC, the self-cleavage amounted to 0.4.

As to UAACAGGGGGCCACAGCAGAAGCGUUCACGUCGCAGCCCCUGUCAGAUCCUAGUGAAUCUGCGAAUUCUGCUGUAUAUCUC, the self-cleavage is 0.8.

On to UAACAGGGGGCCACAGCAGAAGCGUUCACGUCGCAGCCCCUGUCAGAUCCUGGUGAAUCUGCGAAGUCUGCUGUAUAUCUC, for which the self-cleavage turned out to be 0.29.

As to UAACAGGGGGCCACAGCAGAAGCGUUCACGUCGCAGCCCCUGUCAGAUCCUGGUGAAUCUGCGAACUCUGCUGUAUAUCUC, the self-cleavage was 0.25.

For the variant UAACAGGGGGCCACAGCAGAAGCGUUCACGUCGCAGCCCCUGUCAGAUCCUGGUGAAUCUGCGAAAUCUGCUGUAUAUCUC, the self-cleavage was 0.31.

For UAACAGGGGGCCACAGCAGAAGCGUUCACGUCGCAGCCCCUGUCAGAUCCUGGUGAAUCUGCGAAUUCAGCUGUAUAUCUC, the self-cleavage was 0.25.

For UAACAGGGGGCCACAGCAGAAGCGUUCACGUCGCAGCCCCUGUCAGAUCCUGGUGAAUCUGCGAAUUCCGCUGUAUAUCUC, the self-cleavage was found to be 0.31.

For UAACAGGGGGCCACAGCAGAAGCGUUCACGUCGCAGCCCCUGUCAGAUCCUGGUGAAUCUGCGAAUUCGGCUGUAUAUCUC, the self-cleavage came out at 0.25.

With UAACAGGGGGCCACAGCAGAAGCGUUCACGUCGCAGCCCCUGUCAGAUCCUGGUGAACCUGCGAAUUCUGCUGUAUAUCUC, the self-cleavage stood at 0.24.

As to UAACAGGGGGCCACAGCAGAAGCGUUCACGUCGCAGCCCCUGUCAGAUCCUGGUGAAACUGCGAAUUCUGCUGUAUAUCUC, the self-cleavage was 0.14.

As for UAACAGGGGGCCACAGCAGAAGCGUUCACGUCGCAGCCCCUGUCAGAUCCUGGGGAAUCUGCGAAUUCUGCUGUAUAUCUC, the self-cleavage turned out to be 0.25.

As to UAACAGGGGGCCACAGCAGAAGCGUUCACGUCGCAGCCCCUGUCAGAUCCUGGAGAAUCUGCGAAUUCUGCUGUAUAUCUC, the self-cleavage is 0.42.

Regarding UAACAGGGGGCCACAGCAGAAGCGUUCACGUCGCAGCCCCUGUCAGAUCCUGGCGAAUCUGCGAAUUCUGCUGUAUAUCUC, the self-cleavage came out at 0.38.

As for UAACAGGGGGCCACAGCAGAAGCGUUCACGUCGCAGCCCCUGUCAGAUCCUGAUGAAUCUGCGAAUUCUGCUGUAUAUCUC, the self-cleavage was 0.52.

Take UAACAGGGGGCCACAGCAGAAGCGUUCACGUCGCAGCCCCUGUCAGAUCCUGCUGAAUCUGCGAAUUCUGCUGUAUAUCUC: the self-cleavage turned out to be 0.44.

Consider UAACAGGGGGCCACAGCAGAAGCGUUCACGUCGCAGCCCCUGUCAGAUCCUGGUGAAUCUGCGAAUUAUGCUGUAUAUCUC, for which the self-cleavage is 0.15.

As for UAACAGGGGGCCACAGCAGAAGCGUUCACGUCGCAGCCCCUGUCAGAUCCUGGUGAAUCUGCGAAUUUUGCUGUAUAUCUC, the self-cleavage is 0.24.
